In PMC12618784, “The ARVC-5-associated protein TMEM43 controls mitochondrial energy metabolism by stabilising ER-mitochondrial contact sites” (Cellular and Molecular Life Sciences: CMLS, 2025):

Target: T1, Dmel\Tmem43wt::TurboID (Drosophila, UniProt Q9VSB9 1-376)
T1 construct: Dmel\Tmem43 (CG8111), the Drosophila homologue of human TMEM43, wild type; Generated in this study; cloning details are available upon request; also called UAS-CG8111^WT-TurboID; source: transgenic Drosophila third-instar larvae, expressed in muscle with mef2-Gal4, in vivo and in lysate
T1 sequence (looked up): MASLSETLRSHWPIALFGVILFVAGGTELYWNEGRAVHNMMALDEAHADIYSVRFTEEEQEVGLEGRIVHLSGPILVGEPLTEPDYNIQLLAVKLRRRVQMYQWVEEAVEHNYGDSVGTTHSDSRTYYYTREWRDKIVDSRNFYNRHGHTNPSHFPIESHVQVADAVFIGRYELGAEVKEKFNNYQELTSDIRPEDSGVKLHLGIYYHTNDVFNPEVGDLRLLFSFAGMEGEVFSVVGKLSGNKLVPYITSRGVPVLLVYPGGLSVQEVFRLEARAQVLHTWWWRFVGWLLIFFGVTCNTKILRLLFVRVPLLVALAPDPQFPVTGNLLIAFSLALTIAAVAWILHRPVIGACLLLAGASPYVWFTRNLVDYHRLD
Experiment: proximity labelling; TurboID fusions expressed in muscle of third-instar larvae (mef2-Gal4); biotinylated proteins purified on streptavidin microbeads and identified by mass spectrometry
Conditions: partners not purified

B1: Porin (natural protein, UniProt Q94920 1-282, looked up)
chain: MAPPSYSDLGKQARDIFSKGYNFGLWKLDLKTKTSSGIEFNTAGHSNQESGKVFGSLETKYKVKDYGLTLTEKWNTDNTLFTEVAVQDQLLEGLKLSLEGNFAPQSGNKNGKFKVAYGHENVKADSDVNIDLKGPLINASAVLGYQGWLAGYQTAFDTQQSKLTTNNFALGYTTKDFVLHTAVNDGQEFSGSIFQRTSDKLDVGVQLSWASGTSNTKFAIGAKYQLDDDASVRAKVNNASQVGLGYQQKLRDGVTLTLSTLVDGKNFNAGGHKIGVGLELEA
notes: Porin, the fly homologue of the vertebrate voltage-dependent anion channels (VDACs), outer mitochondrial membrane; also called Porin/VDAC; fly homologue of the vertebrate voltage-dependent anion channels; source: endogenous, Drosophila third-instar larval extract
fold stronger interaction than the p.S333L mutant (relative amounts of biotinylated protein): ~8 fold
